Target: T1, Xeroderma Pigmentosum group C (XPC) (human, UniProt Q01831 1-940)
T1 sequence (looked up): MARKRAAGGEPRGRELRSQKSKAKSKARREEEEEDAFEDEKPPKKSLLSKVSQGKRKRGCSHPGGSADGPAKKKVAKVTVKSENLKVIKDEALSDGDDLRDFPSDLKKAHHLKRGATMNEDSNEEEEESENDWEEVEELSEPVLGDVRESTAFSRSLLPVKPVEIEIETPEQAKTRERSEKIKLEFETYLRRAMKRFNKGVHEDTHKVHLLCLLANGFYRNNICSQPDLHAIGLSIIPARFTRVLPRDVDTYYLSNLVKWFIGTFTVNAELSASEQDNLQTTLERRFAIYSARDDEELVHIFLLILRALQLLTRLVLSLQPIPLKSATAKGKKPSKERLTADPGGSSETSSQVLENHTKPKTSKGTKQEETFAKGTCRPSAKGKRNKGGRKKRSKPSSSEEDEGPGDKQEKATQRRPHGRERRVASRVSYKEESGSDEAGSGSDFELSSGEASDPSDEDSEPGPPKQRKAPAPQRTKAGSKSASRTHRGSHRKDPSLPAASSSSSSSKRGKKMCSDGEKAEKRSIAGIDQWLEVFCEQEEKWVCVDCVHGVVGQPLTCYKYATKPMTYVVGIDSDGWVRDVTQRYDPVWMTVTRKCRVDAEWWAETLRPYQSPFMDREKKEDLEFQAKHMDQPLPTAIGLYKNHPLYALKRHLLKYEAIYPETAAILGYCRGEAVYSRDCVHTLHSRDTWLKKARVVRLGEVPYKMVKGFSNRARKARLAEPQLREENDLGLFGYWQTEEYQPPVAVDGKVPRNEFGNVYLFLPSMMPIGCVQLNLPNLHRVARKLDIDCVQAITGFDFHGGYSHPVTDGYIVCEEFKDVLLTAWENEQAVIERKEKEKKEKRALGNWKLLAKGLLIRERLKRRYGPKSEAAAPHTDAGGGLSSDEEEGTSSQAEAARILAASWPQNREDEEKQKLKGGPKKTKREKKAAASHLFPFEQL
Assay: co-IP

B1: Rad23B (natural protein, human, UniProt P54727 1-409, looked up)
chain: MQVTLKTLQQQTFKIDIDPEETVKALKEKIESEKGKDAFPVAGQKLIYAGKILNDDTALKEYKIDEKNFVVVMVTKPKAVSTPAPATTQQSAPASTTAVTSSTTTTVAQAPTPVPALAPTSTPASITPASATASSEPAPASAAKQEKPAEKPAETPVATSPTATDSTSGDSSRSNLFEDATSALVTGQSYENMVTEIMSMGYEREQVIAALRASFNNPDRAVEYLLMGIPGDRESQAVVDPPQAASTGAPQSSAVAAAAATTTATTTTTSSGGHPLEFLRNQPQFQQMRQIIQQNPSLLPALLQQIGRENPQLLQQISQHQEHFIQMLNEPVQEAGGQGGGGGGGSGGIAEAGSGHMNYIQVTPQEKEAIERLKALGFPEGLVIQAYFACEKNENLAANFLLQQNFDED
- binding result: binds
